Experimental data: publication PMC7784689, “Structural mechanism of phospholipids translocation by MlaFEDB complex” (Cell Research, 2020)

Substrate: Nc1ncnc2c1ncn2[C@@H]1O[C@H](COP(=O)(O)OP(=O)(O)OP(=O)(O)O)[C@@H](O)[C@H]1O
Assay: purified protein
Type: biochemical, Escherichia coli
Settings: nanodisc-embedded complex (POPG), 0-4 mM ATP, 37 °C, 30 min

B1: MlaFEDB (Escherichia coli K-12) (protein)
chain: MEQSVANLVDMRDVSFTRGNRCIFDNISLTVPRGKITAIMGPSGIGKTTLLRLIGGQIAPDHGEILFDGENIPAMSRSRLYTVRKRMSMLFQSGALFTDMNVFDNVAYPLREHTQLPAPLLHSTVMMKLEAVGLRGAAKLMPSELSGGMARRAALARAIALEPDLIMFDEPFVGQDPITMGVLVKLISELNSALGVTCVVVSHDVPEVLSIADHAWILADKKIVAHGSAQALQANPDPRVRQFLDGIADGPVPFRYPAGDYHADLLPGS
notes: mlaFEDCB operon in pET20b, C-terminal His-tag on MlaB; host E. coli C43(DE3); purified in DDM, reconstituted in MSP1D1/POPG nanodisc; MlaC only in traces (by MS); with Intermembrane phospholipid transport system permease protein MlaE
- Km: 90 ± 20 µM
